Source: PMC3274534

Target: recombinant human adenovirus type 5 (E1 region replaced by lacZ cDNA), whole virus particles (human adenovirus type 5) (UniProt P04133)

human coagulation factor X (zymogen) (natural protein)
binding of the virus-hFX complex to heparan sulfate-coated plates (attached particles by real-time PCR), enhancement over virus alone; hFX at 0.008 and 0.05 mg/ml: 7.5 times
